The record followed here is patent US20210198368A1 (Novartis, published 2021).

Experiment [1] has as its target T1, human CLL1 expressed on cancer cell lines HL60 and U937 (human, UniProt Q5QGZ9 1-265).
T1 sequence (looked up): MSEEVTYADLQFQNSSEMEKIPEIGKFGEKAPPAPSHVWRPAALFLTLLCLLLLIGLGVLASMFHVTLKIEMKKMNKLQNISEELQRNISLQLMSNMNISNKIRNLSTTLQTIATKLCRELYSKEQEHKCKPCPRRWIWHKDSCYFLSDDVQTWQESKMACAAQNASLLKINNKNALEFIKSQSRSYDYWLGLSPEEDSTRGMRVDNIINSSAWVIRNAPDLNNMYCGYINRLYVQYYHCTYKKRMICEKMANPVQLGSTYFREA
Briefly: cell-based or functional assay.

The next experiment addresses T2, human CLL-1 Fc (human, UniProt Q5QGZ9 65-265, limits assumed).
T2 construct: Captured at 120 RU on an anti-Fc CM5 chip for Biacore; not shown: Fc part of the fusion (captured by an anti-Fc / anti-huFc antibody)
T2 sequence (looked up): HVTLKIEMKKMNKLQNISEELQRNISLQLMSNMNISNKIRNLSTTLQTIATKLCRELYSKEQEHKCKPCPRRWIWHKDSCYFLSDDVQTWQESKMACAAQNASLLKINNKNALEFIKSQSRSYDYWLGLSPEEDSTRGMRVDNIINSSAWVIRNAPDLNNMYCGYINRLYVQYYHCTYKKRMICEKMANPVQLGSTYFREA
Nature of the experiment: SPR (Biacore T200), human CLL-1 Fc captured on an anti-Fc CM5 chip, scFv as analyte, 1:1 binding fit. On the procedure:
Next, the affinity for human CLL-1 of a representative number of anti-CLL-1 scFvs was tested by Biacore. Briefly, anti-Fc antibody (Jackson ImmunoReasearch, catalog #109-005-098) was immobilized to a CM5 sensor chip via amine coupling, and human CLL-1 Fc was then captured at a density of 120 RU. ScFv samples were serial diluted 3-fold and injected over the chip at a constant flow rate. Association and dissociation rates of the protein complex were monitored for 270 s and 400 s, respectively. Double referencing was performed against an anti-huFc coated flow cell and a buffer blank and the data was fit using a 1:1 Langmuir or steady state affinity model with the Biacore T200 evaluation software. Binding of clones CLL-1-6, CLL-1-8, CLL-1-9, CLL-1-10, and CLL1-13 to human CLL-1 was confirmed.
(In general: SPR reads the build-up and loss of mass on a sensor chip optically.)

Another experiment deals with T3, human CLL-1 (human, UniProt Q5QGZ9 65-265, limits assumed).
T3 construct: The construct is not described; also called C-type lectin-like molecule-1; MICL
T3 sequence (looked up): T2 sequence (looked up)
Nature of the experiment: ELISA and/or FACS of phage clones after panning on immobilized CLL-1. In general terms: An ELISA detects its analyte on a solid surface through an enzyme-linked reagent.

B1: CD3 × CLL1_12 (bispecific antibody)
chain 1: QVQLVQSGGGVVQPGRSLRLSCKASGYTFTRYTMHWVRQAPGKGLEWIGYINPSRGYTNYNQKVKDRFTISRDNSKNTAFLQMDSLRPEDTGVYFCARYYDDHYSLDYWGQGTPVTVSSGGGGSGGGKSKKGGSGGGGSDIQMTQSPSSLSASVGDRVTITCSASSSVSYMNWYQQTPGKAPKRWIYDTSKLASGVPSRFSGSGSGTDYTFTISSLQPEDIATYYCQQWSSNPFTFGQGTKLQITGGGGSDKTHTCPPCPAPELLGGPSVFLFPPKPKDTLMISRTPEVTCVVVAVSHEDPEVKFNWYVDGVEVHNAKTKPREEQYNSTYRVVSVLTVLHQDWLNGKEYKCKVSNKALAAPIEKTISKAKGQPREPQVCTLPPSRDELTKNQVSLSCAVKGFYPSDIAVEWESNGQPENNYKTTPPVLDSDGSFFLVSKLTVDKSRWQQGNVFSCSVMHEALHNHYTQKSLSLSPGK
chain 2: not shown
On to B1, for which, in experiment [1], the “EC50 (nM), Killing HL60 (T-cell mediated killing of the CLL1-positive cancer cell line)” value (“EC50 (nM), Killing HL60” below) was 0.2 nM and the “EC50 (nM), NFAT U937 (T-cell activation, Jurkat NFAT luciferase reporter assay)” value (shortened to “EC50 (nM), NFAT U937”) was determined as 0.63 nM.

B2: CD3 × CLL1_08 (bispecific antibody)
chain 1: B1 chain 1
chain 2: QVQLVESGGGLVQPGGSLRLSCAASGFTFSSYWMSWVRQAPGKGLEWVANINEDGSAKFYVDSVKGRFTISRDNAKNSLYLQMNSLRAEDTAVYFCARDLRSGRYWGQGTLVTVSSGGGGSGGGGSGGGGSEIVLTQSPGTLSLSPGGRATLSCRASQSISGSFLAWYQQKPGQAPRLLIYGASSRATGIPDRFSGSGSGTDFTLTISRLEPEDFAVYYCQQYGSSPPTFGLGTKLEIKGGGGSGSDKTHTCPPCPAPELLGGPSVFLFPPKPKDTLMISRTPEVTCVVVAVSHEDPEVKFNWYVDGVEVHNAKTKPREEQYNSTYRVVSVLTVLHQDWLNGKEYKCKVSNKALAAPIEKTISKAKGQPREPQVYTLPPCRDELTKNQVSLWCLVKGFYPSDIAVEWESNGQPENNYKTTPPVLDSDGSFFLYSKLTVDKSRWQQGNVFSCSVMHEALHNHYTQKSLSLSPGK
For B2, in experiment [1], the “EC50 (nM), Killing HL60” value came to 0.31 nM and the “EC50 (nM), NFAT U937” value came to 1.26 nM.

B3: CD3 × CLL1_10 (bispecific antibody)
chain 1: B1 chain 1
chain 2: QVQLVQSGGGLVQPGGSLRLSCAASGFTFSSYSMNWVRQAPGKGLEWVSYISSSSSTIYYADSVKGRFTISRDNAKNSLYLQMNSLRAEDTAVYYCARDLSVRAIDAFDIWGQGTMVTVSSGGGGSGGGGSGGGGSGGGGSDIVLTQSPSSLSASVGDRVTITCQASQDISNYLNWYQQKPGKAPKLLIYDASNLETGVPSRFSGSGSGTDFTFTISSLQPEDFATYYCQQAYSTPFTFGPGTKVEIKGGGGSGSDKTHTCPPCPAPELLGGPSVFLFPPKPKDTLMISRTPEVTCVVVAVSHEDPEVKFNWYVDGVEVHNAKTKPREEQYNSTYRVVSVLTVLHQDWLNGKEYKCKVSNKALAAPIEKTISKAKGQPREPQVYTLPPCRDELTKNQVSLWCLVKGFYPSDIAVEWESNGQPENNYKTTPPVLDSDGSFFLYSKLTVDKSRWQQGNVFSCSVMHEALHNHYTQKSLSLSPGK
Consider B3, for which, in experiment [1], the “EC50 (nM), Killing HL60” value is 0.27 nM and the “EC50 (nM), NFAT U937” value amounted to 0.85 nM.

B4: CLL-1-9 (scFv)
scFv: QVQLVQSGAEVKEPGASVKVSCKAPANTFSDHVMHWVRQAPGQRFEWMGYIHAANGGTHYSQKFQDRVTITRDTSANTVYMDLSSLRSEDTAVYYCARGGYNSDAFDIWGQGTMVTVSSGGGGSGGGGSGGGGSGGGGSDIVMTQSPSSVSASVGDRVTITCRASQDISSWLAWYQQKPGKAPKLLIYAASSLQSGVPSRFNGSGSGTDFTLTISSLQPEDFATYYCQQSYSTPLTFGGGTKVEIK
notes: Soluble scFv from HEK293F cells, purified on Ni-NTA; a tag is implied but not described; also called 146259
Usually Kd stands for a measure of binding affinity in units of concentration. The koff is the first-order rate constant of dissociation. Read a low koff as a long-lived complex. Usually kon stands for a measure of how fast the partners come together. A high value points to faster complex formation. Regarding B4, in the experiment with human CLL-1 Fc, the Kd was determined as 9.1 nM, the off-rate constant (koff) came to 0.00128 s⁻¹ and the kon is 141000 M⁻¹ s⁻¹.

B5: CLL-1-10 (scFv)
scFv: QVQLVQSGGGLVQPGGSLRLSCAASGFTFSSYSMNWVRQAPGKGLEWVSYISSSSSTIYYADSVKGRFTISRDNAKNSLYLQMNSLRAEDTAVYYCARDLSVRAIDAFDIWGQGTMVTVSSGGGGSGGGGSGGGGSGGGGSDIVLTQSPSSLSASVGDRVTITCQASQDISNYLNWYQQKPGKAPKLLIYDASNLETGVPSRFSGSGSGTDFTFTISSLQPEDFATYYCQQAYSTPFTFGPGTKVEIK
notes: Soluble scFv from HEK293F cells, purified on Ni-NTA; a tag is implied but not described; also called 146261
In the case of B5, in the experiment with human CLL-1 Fc, the equilibrium dissociation constant (Kd) was determined as 15 nM, the off-rate constant (koff) came to 0.00214 s⁻¹ and the kon came to 142000 M⁻¹ s⁻¹.

B6: CLL-1-1 (scFv)
scFv: EVQLQQSGAEVKKPGSSVKVSCKASGGTFSSYAISWVRQAPGQGLEWMGGIIPIFGTANYAQKFQGRVTITADESTSTAYMELSSLRSEDTAVYYCARDLEMATIMGGYWGQGTLVTVSSGGGGSGGGGSGGGGSQSALTQPASVSGSPGQSITISCTGTSSDVGGYNYVSWYQQHPGKAPKLMIYDVSNRPSGVSNRFSGSKSGNTASLTISGLQAEDEADYYCSSYTSSSTLDVVFGGGTKLTVL
notes: Human scFv from phage display (VH-linker-VL); For Biacore it was made as soluble scFv in HEK293F cells and purified on Ni-NTA beads; a tag is implied but not described; also called 139115
With B6, the binding result with human CLL-1 was “binds”.

B7: CLL-1-2 (scFv)
scFv: EVQLVESGGGVVQPGGSLRLSCAASGFTFDDYAMHWVRQAPGKGLEWVSLISGDGGSTYYADSVKGRFTISRDNSKNTLYLQMNSLRVEDTAVYYCARVFDSYYMDVWGKGTTVTVSSGGGGSGGGGSGSGGSEIVLTQSPLSLPVTPGQPASISCRSSQSLVYTDGNTYLNWFQQRPGQSPRRLIYKVSNRDSGVPDRFSGSGSDTDFTLKISRVEAEDVGIYYCMQGTHWSFTFGQGTRLEIK
notes: Human scFv from phage display; also called 139116
On to B7, for which the binding result in the experiment with human CLL-1 is “binds”.

B8: CLL-1-13 (scFv)
scFv: QVQLVQSGAEVKKSGASVKVSCKASGYPFTGYYIQWVRQAPGQGLEWMGWIDPNSGNTGYAQKFQGRVTMTRNTSISTAYMELSSLRSEDTAVYYCASDSYGYYYGMDVWGQGTLVTVSSGGGGSGGGGSGGGGSGGGGSDIQMTQSPSSLSASVGDRVTFTCRASQGISSALAWYQQKPGKPPKLLIYDASSLESGVPSRFSGSGSGTDFTLTISSLQPEDFATYYCQQFNNYPLTFGGGTKVEIK
notes: Soluble scFv from HEK293F cells, purified on Ni-NTA; a tag is implied but not described; also called 146264
B8: in the experiment with human CLL-1 Fc, the dissociation constant (Kd) worked out at 46.1 nM, the off-rate (koff) was 0.00119 s⁻¹ and the on-rate (kon) amounted to 25700 M⁻¹ s⁻¹.
